# Target: human CD47 (human, UniProt Q08722 19-323)
# Assay: cell-based or functional assay
Binder,"tumor killing activity on SK-OV3 cells with T cells (luciferase), compared with clone No. 100 [fold]","tumor killing activity on SK-OV3 cells with T cells (luciferase), compared with the T cell control group [fold]","tumor killing activity on SK-OV3 cells with T cells (luciferase), compared with the positive control antibody (B6H12-αCD3-BITE) [fold]","tumor killing activity on NCI-H292 cells with T cells (luciferase), compared with clone No. 100 [fold]","tumor killing activity on NCI-H292 cells with T cells (luciferase), compared with the T cell control group [fold]","tumor killing activity on NCI-H292 cells with T cells (luciferase), compared with the positive control antibody (B6H12-αCD3-BITE) [fold]"
Hu004-68-αCD3-BITE (bispecific antibody) EVQLVESGGGLVQPGGSLRLSCAASGFTFSGYGMSWVRQAPGKGLEWVATITSGGTYTYYPDSVKGRFTISRDNAKNSLYLQMNSLRAEDTAVYYCARSLAGNAMDYWGQGTLVTVSSGGGGSGGGGSGGGGSQVQLVQSGAEVKKPGASVKVSCKASGYTFTRYTMHWVRQAPGQGLEWMGYINPSRGYTNYNQKFKDRVTITADKSTSTAYMELSSLRSEDTAVYYCARYYDDHYCLDYWGQGTTVTVSSGGGGSGGGGSGGGGSEIVLTQSPATLSLSPGERATLSCSASSSVSYMNWYQQKPGKAPKRLIYDTSKLASGVPSRFSGSGSGTDFTLTINSLEAEDAATYYCQQWSSNPFTFGQGTKVEIKGGGGSGGGGSGGGGSEIVLTQSPVTLSVSPGERATLSCRASQGVTSNLAWYQQKPGQAPRLLIYGASTRATGVPARFSGSGSGTEFTLTISSLQSEDFAVYYCQHRGTFGQGTKVDIK,2,3.5,1.5,–,–,–
Hu004-101-αCD3-BITE (bispecific antibody) EVQLVESGGGLVQPGGSLRLSCAASGFTFSGYGMSWVRQAPGKGLEWVATITSGGTYTYYPDSVKGRFTISRDNAKNSLYLQMNSLRAEDTAVYYCARSLAGNAMDYWGQGTLVTVSSGGGGSGGGGSGGGGSQVQLVQSGAEVKKPGASVKVSCKASGYTFTRYTMHWVRQAPGQGLEWMGYINPSRGYTNYNQKFKDRVTITADKSTSTAYMELSSLRSEDTAVYYCARYYDDHYCLDYWGQGTTVTVSSGGGGSGGGGSGGGGSEIVLTQSPATLSLSPGERATLSCSASSSVSYMNWYQQKPGKAPKRLIYDTSKLASGVPSRFSGSGSGTDFTLTINSLEAEDAATYYCQQWSSNPFTFGQGTKVEIKGGGGSGGGGSGGGGSDIQMTQSPSTLSASVGDRVTITCRASQSISNWLAWYQQKPGEAPKLLIYKASNLESGVPSRFSGSGSGTEFTLTISSLQPDDFATYYCQQFGTFGQGTKVEIK,–,–,–,1.2,4,1.2
